From US20150344888A1 (Genentech, published 2015)
Numbering of substitutions follows the chain as printed. Where “and” joins values, the source holds several entries; their conditions need not be identical. Equal entries are not always repeated. Where no end group is shown, it is not given here.

T1: USP5 (UniProt P45974 1-858, limits assumed)
T1 sequence (looked up): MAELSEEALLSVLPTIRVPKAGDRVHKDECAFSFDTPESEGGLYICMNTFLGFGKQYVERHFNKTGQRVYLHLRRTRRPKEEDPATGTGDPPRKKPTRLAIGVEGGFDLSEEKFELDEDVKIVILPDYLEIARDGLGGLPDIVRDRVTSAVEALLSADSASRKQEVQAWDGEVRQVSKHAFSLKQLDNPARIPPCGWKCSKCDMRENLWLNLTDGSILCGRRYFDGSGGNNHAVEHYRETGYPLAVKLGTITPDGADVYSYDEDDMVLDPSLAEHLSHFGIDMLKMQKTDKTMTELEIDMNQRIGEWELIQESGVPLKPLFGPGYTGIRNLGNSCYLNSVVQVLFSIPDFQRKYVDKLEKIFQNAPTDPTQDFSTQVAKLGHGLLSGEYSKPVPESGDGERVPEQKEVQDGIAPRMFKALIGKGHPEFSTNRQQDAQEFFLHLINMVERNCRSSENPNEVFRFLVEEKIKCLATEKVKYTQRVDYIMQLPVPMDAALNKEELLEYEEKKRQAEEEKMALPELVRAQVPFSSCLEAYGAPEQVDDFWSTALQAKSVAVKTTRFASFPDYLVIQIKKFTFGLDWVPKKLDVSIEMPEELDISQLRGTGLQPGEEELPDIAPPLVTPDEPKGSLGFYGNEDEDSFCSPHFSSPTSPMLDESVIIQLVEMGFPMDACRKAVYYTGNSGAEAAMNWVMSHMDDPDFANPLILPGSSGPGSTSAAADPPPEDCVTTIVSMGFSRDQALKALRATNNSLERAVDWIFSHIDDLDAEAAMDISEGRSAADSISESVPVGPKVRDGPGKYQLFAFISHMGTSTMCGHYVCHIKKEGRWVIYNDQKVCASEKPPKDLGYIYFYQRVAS

T2: UCHL3 (UniProt P15374 1-230)
T2 sequence (looked up): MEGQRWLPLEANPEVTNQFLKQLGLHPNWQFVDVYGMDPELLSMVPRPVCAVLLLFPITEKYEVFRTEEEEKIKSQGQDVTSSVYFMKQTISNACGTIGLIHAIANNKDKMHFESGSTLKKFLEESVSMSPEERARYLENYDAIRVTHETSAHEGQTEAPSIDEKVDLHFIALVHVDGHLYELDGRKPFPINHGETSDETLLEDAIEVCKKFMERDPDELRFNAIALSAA

T3: USP2 (UniProt O75604 259-605, limits assumed)
T3 sequence (looked up): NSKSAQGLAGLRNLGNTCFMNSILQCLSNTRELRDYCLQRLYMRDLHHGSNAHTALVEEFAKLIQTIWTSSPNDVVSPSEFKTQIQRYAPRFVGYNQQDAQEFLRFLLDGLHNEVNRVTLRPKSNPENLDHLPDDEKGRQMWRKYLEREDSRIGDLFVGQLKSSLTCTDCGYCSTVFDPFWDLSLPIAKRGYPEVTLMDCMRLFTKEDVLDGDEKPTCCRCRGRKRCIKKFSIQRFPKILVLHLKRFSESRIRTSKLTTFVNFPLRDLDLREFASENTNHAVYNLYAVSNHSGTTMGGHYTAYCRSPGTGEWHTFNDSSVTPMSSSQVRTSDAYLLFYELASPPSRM

T4: USP30 (active enzyme in the ubiquitin-AMC assay) (Homo sapiens (Human), UniProt Q70CQ3 57-517, limits assumed)
T4 sequence: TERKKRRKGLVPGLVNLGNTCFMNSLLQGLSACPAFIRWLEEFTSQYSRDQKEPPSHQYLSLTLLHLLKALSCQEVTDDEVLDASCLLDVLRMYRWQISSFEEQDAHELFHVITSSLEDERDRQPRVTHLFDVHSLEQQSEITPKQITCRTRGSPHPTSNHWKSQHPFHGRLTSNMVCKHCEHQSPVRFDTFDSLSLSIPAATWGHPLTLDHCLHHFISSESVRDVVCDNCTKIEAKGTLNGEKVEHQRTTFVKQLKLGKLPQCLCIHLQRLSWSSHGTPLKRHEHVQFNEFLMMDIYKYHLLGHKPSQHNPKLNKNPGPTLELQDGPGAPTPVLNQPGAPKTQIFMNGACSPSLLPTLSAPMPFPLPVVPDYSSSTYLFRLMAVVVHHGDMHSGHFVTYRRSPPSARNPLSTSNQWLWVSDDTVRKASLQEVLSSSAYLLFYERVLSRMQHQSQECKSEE

T5: biotinylated USP30_cd (USP30 catalytic domain with C77A mutation) (Homo sapiens (Human), UniProt Q70CQ3 57-517, limits assumed, biotinylated (site not stated))
T5 sequence: T4 sequence with C21A


Columns and labels:
USP5 = biological target: T1, USP5; experiment: cell-based or functional assay
UCHL3 = biological target: T2, UCHL3; experiment: cell-based or functional assay
USP2 = biological target: T3, USP2; experiment: cell-based or functional assay
[1] = biological target: T4, USP30 (active enzyme in the …); experiment: cell-based or functional assay
[2] = biological target: T5, biotinylated USP30_cd (USP30 catalytic …); experiment: spot phage ELISA on biotinylated USP30_cd
Text: The selection identified peptide USP30_{—}3 and USP30_{—}8, which had moderate spot ELISA signals (signal/noise ratios of ˜5).

Binder	IC50, inhibition of ubiquitin-AMC cleavage (initial rate, fluorescence) (USP5) [µM]	fold higher IC50 than for USP30 (USP5) [fold]	IC50, inhibition of ubiquitin-AMC cleavage (initial rate, fluorescence) (UCHL3) [µM]	IC50, inhibition of ubiquitin-AMC cleavage (initial rate, fluorescence) (USP2)	fold higher IC50 than for USP30 (USP2) [fold]	IC50, inhibition of ubiquitin-AMC cleavage (initial rate, fluorescence) [1] [µM]	signal/noise ratio (spot ELISA) [2]
PLYCFYDLTYGYLCFY (also called pep3; parent USP30-3) [peptide USP30-3]	49.4	> 6	> 200	~100 µM and > 200 µM	> 10	8	~5
VSRCYIFWNEMFCDVE (not fully specified (bridges); cysteine pairing not given here, also called pep8) [peptide USP30-8]	–	–	–	–	–	–	~5
